Article PMC8797470, “Disruption of the pentraxin 3/CD44 interaction as an efficient therapy for triple‐negative breast cancers” (Clinical and Translational Medicine, 2022)

Target: T1, full-length PTX3 (#1826-TS; R&D Systems) (UniProt P26022 18-381)
T1 construct: bought protein; source: bought: R&D Systems (#1826-TS)
Assay: SPR; BIAcore 3000; full-length PTX3 amine-coupled to a CM5 chip (4000-6000 RU); N-terminal CD44 as analyte; PBS pH 7.2, 10 μl/min, 1 min association, 2 min dissociation; 1:1 Langmuir model
Details: both partners purified

T1 sequence (P26022 18-381): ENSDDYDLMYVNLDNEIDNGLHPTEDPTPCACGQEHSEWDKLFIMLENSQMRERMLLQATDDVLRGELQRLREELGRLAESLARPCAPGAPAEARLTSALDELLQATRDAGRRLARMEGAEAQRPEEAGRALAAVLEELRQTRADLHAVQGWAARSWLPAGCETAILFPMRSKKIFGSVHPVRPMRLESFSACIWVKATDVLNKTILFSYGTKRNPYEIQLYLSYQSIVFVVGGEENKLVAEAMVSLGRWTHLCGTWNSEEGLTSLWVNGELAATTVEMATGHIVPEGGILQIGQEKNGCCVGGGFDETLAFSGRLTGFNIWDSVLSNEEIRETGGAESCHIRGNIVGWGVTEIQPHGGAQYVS

Kd: 21 nM
koff: 2.43e-06 s⁻¹
kon: 130 M⁻¹ s⁻¹
B1: N-terminal of CD44 (#CD44-3961H; Creative Biomart) (domain or fragment)
chain: QIDLNITCRFAGVFHVEKNGRYSISRTEAADLCKAFNSTLPTMAQMEKALSIGFETCRYGFIEGHVVIPRIHPNSICAANNTGVYILTSNTSQYDTYCFNASAPPEEDCTSVTDLPNAFDGPITITIVNRDGTRYVQKGEYRTNPEDIYPSNPTDDDV
modifications: Bought protein with limits not printed. Limits are the conventional N-terminal hyaluronan-binding domain (Link domain plus flanks, mature start 21 to 178). This range covers the predicted PTX3 …
